Measured values reported in article PMC6007841 (Journal of medicinal chemistry, 2018).
Bridge positions count the residues as written; N and C are the ends. Ends that are not written are not given here.

What was measured:
Assay in all cases: cell-based or functional assay
[1] = target: mouse melanocortin 5 receptor (mouse, UniProt P41149 1-325)
[2] = target: human melanocortin 1 receptor (human, UniProt Q01726 1-317)
[3] = target: human melanocortin 4 receptor (human, UniProt P32245 1-332)
[4] = target: mouse melanocortin 1 receptor (mouse, UniProt Q01727 1-315)
[5] = target: mouse melanocortin 3 receptor (mouse, UniProt P33033 1-323)
[6] = target: human melanocortin 3 receptor (human, UniProt P41968 1-323)
Chain of human melanocortin 3 receptor (P41968 whole entry): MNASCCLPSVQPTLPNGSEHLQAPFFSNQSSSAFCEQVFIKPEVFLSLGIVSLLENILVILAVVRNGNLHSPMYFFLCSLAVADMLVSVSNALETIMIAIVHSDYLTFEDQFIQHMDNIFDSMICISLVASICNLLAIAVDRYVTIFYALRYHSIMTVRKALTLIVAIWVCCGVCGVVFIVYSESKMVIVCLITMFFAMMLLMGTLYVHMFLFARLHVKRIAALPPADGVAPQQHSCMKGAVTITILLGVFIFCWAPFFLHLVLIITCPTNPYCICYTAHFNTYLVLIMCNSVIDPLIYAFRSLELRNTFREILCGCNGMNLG

Chain of human melanocortin 1 receptor (Q01726 whole entry): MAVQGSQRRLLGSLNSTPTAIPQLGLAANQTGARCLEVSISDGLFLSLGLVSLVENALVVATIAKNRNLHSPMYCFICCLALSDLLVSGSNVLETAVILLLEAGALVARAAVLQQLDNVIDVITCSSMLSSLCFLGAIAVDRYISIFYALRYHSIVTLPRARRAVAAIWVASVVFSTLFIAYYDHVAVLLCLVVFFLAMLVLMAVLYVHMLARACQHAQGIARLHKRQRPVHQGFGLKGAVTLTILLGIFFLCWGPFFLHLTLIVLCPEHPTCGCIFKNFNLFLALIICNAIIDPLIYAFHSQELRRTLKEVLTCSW
Chain of human melanocortin 4 receptor (P32245 whole entry): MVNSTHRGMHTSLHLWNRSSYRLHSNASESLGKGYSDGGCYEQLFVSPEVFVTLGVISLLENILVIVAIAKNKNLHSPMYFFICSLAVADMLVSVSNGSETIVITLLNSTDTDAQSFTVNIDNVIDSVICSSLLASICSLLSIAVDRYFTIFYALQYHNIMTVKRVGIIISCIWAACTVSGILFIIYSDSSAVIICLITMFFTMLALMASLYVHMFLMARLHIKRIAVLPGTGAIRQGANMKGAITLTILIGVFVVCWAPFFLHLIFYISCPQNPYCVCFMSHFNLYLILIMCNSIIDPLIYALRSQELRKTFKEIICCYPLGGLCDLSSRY
Chain of mouse melanocortin 1 receptor (Q01727 whole entry): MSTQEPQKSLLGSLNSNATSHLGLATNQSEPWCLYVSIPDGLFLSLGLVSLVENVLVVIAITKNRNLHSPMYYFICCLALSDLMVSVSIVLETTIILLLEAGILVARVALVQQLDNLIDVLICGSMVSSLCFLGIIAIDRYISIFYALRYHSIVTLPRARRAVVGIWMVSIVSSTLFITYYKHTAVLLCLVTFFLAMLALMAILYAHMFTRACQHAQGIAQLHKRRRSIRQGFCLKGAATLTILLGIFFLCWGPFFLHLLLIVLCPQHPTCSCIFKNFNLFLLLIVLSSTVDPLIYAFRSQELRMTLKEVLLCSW
Chain of mouse melanocortin 5 receptor (P41149 whole entry): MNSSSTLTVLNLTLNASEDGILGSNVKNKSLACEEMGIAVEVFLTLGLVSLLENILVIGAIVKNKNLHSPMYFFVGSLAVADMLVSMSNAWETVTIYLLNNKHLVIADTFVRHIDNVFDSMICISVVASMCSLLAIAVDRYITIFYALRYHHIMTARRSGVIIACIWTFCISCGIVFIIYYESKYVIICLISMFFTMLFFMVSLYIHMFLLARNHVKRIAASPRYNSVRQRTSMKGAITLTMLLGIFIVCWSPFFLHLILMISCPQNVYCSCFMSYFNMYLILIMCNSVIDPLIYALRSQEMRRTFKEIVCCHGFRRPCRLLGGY
Chain of mouse melanocortin 3 receptor (P33033 whole entry): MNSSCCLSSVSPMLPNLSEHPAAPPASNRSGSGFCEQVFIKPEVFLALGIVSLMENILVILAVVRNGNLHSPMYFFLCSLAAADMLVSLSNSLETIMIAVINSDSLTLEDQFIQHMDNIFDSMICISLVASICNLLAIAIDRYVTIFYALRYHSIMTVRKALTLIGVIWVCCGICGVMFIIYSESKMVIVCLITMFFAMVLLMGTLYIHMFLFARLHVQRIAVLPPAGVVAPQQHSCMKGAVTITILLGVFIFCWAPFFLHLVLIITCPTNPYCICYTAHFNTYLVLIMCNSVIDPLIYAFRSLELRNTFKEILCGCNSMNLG

B1: human β-defensin 3, oxidized, folded form (peptide, UniProt P81534 23-67, looked up)
chain: GIINTLQKYYCRVRGGRCAVLSCLPKEEQIGKCSTRGRKCCRRKK
modifications: oxidized, folded form (disulfide bonds formed)
- cAMP agonist EC50 (AlphaScreen cAMP assay, HEK293 cells expressing the receptor) [1]: 4.7 µM
- cAMP agonist EC50 (AlphaScreen cAMP assay, HEK293 cells expressing the receptor) [2]: 0.4 µM
- cAMP agonist EC50 (AlphaScreen cAMP assay, HEK293 cells expressing the receptor) [3]: 2.6 µM
- cAMP agonist EC50 (AlphaScreen cAMP assay, HEK293 cells expressing the receptor) [4]: 2.2 µM

B2: human β-defensin 1, oxidized form (peptide, UniProt P60022 33-68, looked up)
chain: DHYNCVSSGGQCLYSACPIFTKIQGTCYRGKAKCCK
modifications: oxidized form (disulfide bonds formed)
- cAMP agonist EC50 (AlphaScreen cAMP assay, HEK293 cells expressing the receptor) [2]: 7.4 µM

B3: mouse β-defensin 1, oxidized form (peptide, UniProt P56386 33-69, looked up)
chain: DQYKCLQHGGFCLRSSCPSNTKLQGTCKPDKPNCCKS
modifications: disulfide 12-27, 17-35, 5-34
- cAMP agonist EC50 (AlphaScreen cAMP assay, HEK293 cells expressing the receptor) [1]: 5.2 µM
- cAMP agonist EC50 (AlphaScreen cAMP assay, HEK293 cells expressing the receptor) [2]: 1.4 µM
- cAMP agonist EC50 (AlphaScreen cAMP assay, HEK293 cells expressing the receptor) [3]: 3.8 µM
- cAMP agonist EC50 (AlphaScreen cAMP assay, HEK293 cells expressing the receptor) [5]: 14 µM
- cAMP agonist EC50 (AlphaScreen cAMP assay, HEK293 cells expressing the receptor) [6]: 22 µM
- cAMP agonist EC50 (AlphaScreen cAMP assay, HEK293 cells expressing the receptor) [4]: 11 µM
